Measured values: patent US8299028B2, “Chimeric peptide antagonist for GPCR135 or GPCR142” (Janssen Pharmaceutica NV, priority 2007, dated 2012)

Target: T1, human LGR7 (Homo sapiens, UniProt Q9HBX9)
T1 sequence (Q9HBX9 1-757): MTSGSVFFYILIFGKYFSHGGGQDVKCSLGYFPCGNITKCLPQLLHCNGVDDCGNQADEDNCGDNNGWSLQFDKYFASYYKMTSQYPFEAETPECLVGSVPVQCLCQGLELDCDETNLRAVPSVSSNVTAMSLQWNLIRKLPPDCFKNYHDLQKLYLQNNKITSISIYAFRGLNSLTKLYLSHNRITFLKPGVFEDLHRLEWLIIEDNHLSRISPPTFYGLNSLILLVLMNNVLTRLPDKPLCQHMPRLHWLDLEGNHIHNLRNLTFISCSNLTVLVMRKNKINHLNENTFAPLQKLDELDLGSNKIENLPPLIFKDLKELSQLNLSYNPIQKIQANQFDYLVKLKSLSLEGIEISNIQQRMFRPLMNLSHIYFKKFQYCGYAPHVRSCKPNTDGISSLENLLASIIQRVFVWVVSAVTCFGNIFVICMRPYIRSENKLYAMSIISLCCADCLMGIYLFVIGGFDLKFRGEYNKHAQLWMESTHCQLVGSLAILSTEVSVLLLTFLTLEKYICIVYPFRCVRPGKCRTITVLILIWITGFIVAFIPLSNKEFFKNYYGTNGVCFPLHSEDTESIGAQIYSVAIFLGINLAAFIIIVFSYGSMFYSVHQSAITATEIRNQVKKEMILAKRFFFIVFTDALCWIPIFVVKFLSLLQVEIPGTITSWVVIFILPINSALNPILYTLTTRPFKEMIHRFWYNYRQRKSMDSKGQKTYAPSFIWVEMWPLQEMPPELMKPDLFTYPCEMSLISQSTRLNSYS
Test: Agonist assay, stimulation of β-gal expression in SK-N-MC/CRE-β-gal cells
Type: cell-based
Parameters: expressed in transfected cells; host or cells: SK-N-MC/CRE-β-gal
Description: FIG. 1 provides a characterization of mutant relaxin-3 peptides as ligands for human GPCR135, GPCR142, and LGR7. The truncated peptides were tested for their GPCR135 and GPCR142 agonist activity using SK-N-MC/CRE-β-gal cells expressing either human GPCR135 (A) or GPCR142 (B). Agonists for GPCR135 or GPCR142 inhibit forskolin induced β-galactosidase (β-gal) expression. The LGR7 agonist activity of the truncated peptides was tested using SK-N-MC/CRE-β-gal cells expressing Gαs-linked human LGR7 (C). Human relaxin-3 was used as positive control in both cases. β-gal expression was measured by colorimetric assay using CPRG as the substrate and reading the absorbance at 570 nm.
All peptides were tested for their GPCR135, GPCR142, and LGR7 agonist activities in SK-N-MC/CRE cells expressing the relevant receptors as described by Liu et al., 2005b. […] An increase in cAMP concentration in these cells is associated with increased β-gal expression, which can be measured using Chlorophenol Red-β-D-Galactopyranoside (CRGP) as a substrate and reading the optical absorbance at 570 nm. […] The results were analyzed using GraphPad Prism 4.0 software. […] The agonism and antagonism of peptides for rat LGR7 was assayed using a cAMP luminescence assay. […] The cAMP in the cells was measured with a cAMP detection kit (DiscoveRx HitHunter, Cat. #90-0041) according to the manufacturer's protocol. […]

## R3(BΔ23-27)R: Relaxin-3 mutant: B-chain SEQ ID NO:15 (Gly23-Trp27 deleted plus C-terminal Arg), relaxin-3 A-chain SEQ ID NO:13
Human LGR7 agonist response, mean ± SEM, NA = no agonist activity observed
  EC50: > 1000 nM
Stimulation of β-gal expression
  agonist activity at human LGR7: no LGR7 agonist activity
